Article PMC8154254, “On the Track of Long-Range Electron Transfer in B-Type Dye-Decolorizing Peroxidases: Identification of a Tyrosyl Radical by Computational Prediction and Electron Paramagnetic Resonance Spectroscopy” (Biochemistry, 2021)

What follows are substances tested on CCn1c(=NN=c2sc3cc(S(=O)(=O)O)ccc3n2CC)sc2cc(S(=O)(=O)O)ccc21 (assay: purified protein). Conditions: 40 μM H2O2, 100 nM enzyme, 50 mM phosphate-citrate pH 5.0, room temperature.

First: KpDyP (B-type Klebsiella pneumoniae dye-decolorizing peroxidase) (Klebsiella pneumoniae; W18F)
Second: KpDyP (B-type Klebsiella pneumoniae dye-decolorizing peroxidase) (Klebsiella pneumoniae; W18F/Y92F)
The Km of the first is 1.6-fold lower: 54 ± 8 µM for the first, 84 ± 8 µM for the second.

Compared with “KpDyP (B-type Klebsiella pneumoniae dye-decolorizing peroxidase) (Klebsiella pneumoniae; Y237F)”, “KpDyP (B-type Klebsiella pneumoniae dye-decolorizing peroxidase) (Klebsiella pneumoniae; Y247F)” is 7.5-fold higher in Km: 36 ± 7 µM for the first, 270 ± 16 µM for the second.

Substance “KpDyP (B-type Klebsiella pneumoniae dye-decolorizing peroxidase) (Klebsiella pneumoniae; Y247F/Y92F)” has a Km of 345 ± 73 µM.

“KpDyP (B-type Klebsiella pneumoniae dye-decolorizing peroxidase) (Klebsiella pneumoniae; W18F)” and “KpDyP (B-type Klebsiella pneumoniae dye-decolorizing peroxidase) (Klebsiella pneumoniae; W18F/Y92F)” are within 1.5-fold of each other in kcat: 4.7 s⁻¹ for the first, 6.5 s⁻¹ for the second.

First: KpDyP (B-type Klebsiella pneumoniae dye-decolorizing peroxidase) (Klebsiella pneumoniae; Y237F)
Second: KpDyP (B-type Klebsiella pneumoniae dye-decolorizing peroxidase) (Klebsiella pneumoniae; Y247F)
The kcat of the first is 1.9-fold lower: 4.6 s⁻¹ for the first, 8.7 s⁻¹ for the second.

For “KpDyP (B-type Klebsiella pneumoniae dye-decolorizing peroxidase) (Klebsiella pneumoniae; Y247F/Y92F)”, the kcat was 12.8 s⁻¹.

“KpDyP (B-type Klebsiella pneumoniae dye-decolorizing peroxidase) (Klebsiella pneumoniae; W18F)” and “KpDyP (B-type Klebsiella pneumoniae dye-decolorizing peroxidase) (Klebsiella pneumoniae; W18F/Y92F)” are within 1.5-fold of each other in kcat/Km: 86000 M⁻¹ s⁻¹ for the first, 77000 M⁻¹ s⁻¹ for the second.

Going from “KpDyP (B-type Klebsiella pneumoniae dye-decolorizing peroxidase) (Klebsiella pneumoniae; Y237F)” to “KpDyP (B-type Klebsiella pneumoniae dye-decolorizing peroxidase) (Klebsiella pneumoniae; Y247F)”, the kcat/Km falls from 125000 M⁻¹ s⁻¹ to 33000 M⁻¹ s⁻¹ (3.8-fold).

“KpDyP (B-type Klebsiella pneumoniae dye-decolorizing peroxidase) (Klebsiella pneumoniae; Y247F/Y92F)” showed a kcat/Km of 37000 M⁻¹ s⁻¹.
